Measurements from patent US10925971B2, “Methods of treating PRLR positive breast cancer” (Regeneron Pharmaceuticals, Inc., priority 2016, dated 2021).

Tests used:
[1] = target: T1, monomeric human PRLR (hPRLR.mmh; SEQ ID NO:401) (Homo sapiens, UniProt P16471); assay: Surface plasmon resonance (Biacore T200), antibody-capture format; format: binding; details: analyte hPRLR.mmh
T1 construct: soluble monomeric (hPRLR.mmh); mmh (myc-myc-hexahistidine) (C)
Protocol: (§1) Antibodies, expressed as human IgG1 Fc (i.e., “H1H” designations), were captured onto an anti-human Fc sensor surface (mAb-capture format), and soluble monomeric (hPRLR.mmh; SEQ ID NO:401, or Macaca fascicularis (mf) PRLR.mmh; SEQ ID NO:403) or dimeric (hPRLR.mFc; SEQ ID NO:402) PRLR protein was injected over the sensor surface. Measurements were conducted on a T200 Biacore instrument. Kinetic association (ka) and dissociation (kd) rate constants were determined by processing and fitting the data to a 1:1 binding model using Scrubber 2.0 curve fitting software.

[2] = target: T2, dimeric human PRLR (hPRLR.mFc; SEQ ID NO:402) (Homo sapiens, UniProt P16471); assay: as above; format: binding; details: analyte hPRLR.mFc
T2 construct: dimeric (hPRLR.mFc)
Protocol: as §1

[3] = tested on: Macaca fascicularis PRLR (mfPRLR.mmh; SEQ ID NO:403); assay: as above; format: binding; details: analyte mfPRLR.mmh
Protocol: as §1

[4] = tested on: HEK293 parental cells; assay: FACS cell surface binding; set-up: species or system human
Protocol: (§2) The ability of anti-PRLR antibodies to selectively bind PRLR expressing cell lines was next determined. Human, monkey Macaca fascicularis, and mouse PRLR constructs with an HA tag were stably introduced into HEK293 cells via Lipofectamine 2000-mediated transfection methodology. Transfectants (HEK293/hPRLR, HEK293/mfPRLR and HEK293/mPRLR) were selected for at least 2 weeks in complete growth media plus G418.
(§3) Cell surface expression of PRLR on 293/hPRLR cells was assessed via FACS analysis. Briefly, 1×10^5 cells were incubated with 10 μg/ml of Control antibody I, or an isotype control for 30 min on ice in antibody dilution buffer. Following two washes with antibody dilution buffer, cells were incubated with 10 μg/ml of PE conjugated anti-human secondary antibodies for 30 min on ice. Following two additional washes, samples were run on a Hypercyt® cytometer and analyzed in ForeCyt™ (IntelliCyt, Albuquerque, N. Mex.). The mean fluorescence intensities (MFI) were expressed as fold change above isotype control levels (background). FACS binding confirmed that Control I selectively bound to 293/hPRLR expressing cells with MFIs that were 30 fold above background (isotype ctrl) levels and less than 2 fold binding on parental cells.
(§4) Next, the anti-PRLR antibodies were tested via FACS for selective binding to the engineered overexpressing PRLR HEK293 cell lines, as well as to non-expressing HEK293 cells and a native PRLR expressing cell line (T47D).

[5] = target: T3, native PRLR expressing T47D cells (Homo sapiens, UniProt P16471); assay: FACS cell surface binding
T3 construct: a native PRLR expressing cell line (T47D); endogenous in cells; host or cells: T47D
T3 sequence (P16471 25-622): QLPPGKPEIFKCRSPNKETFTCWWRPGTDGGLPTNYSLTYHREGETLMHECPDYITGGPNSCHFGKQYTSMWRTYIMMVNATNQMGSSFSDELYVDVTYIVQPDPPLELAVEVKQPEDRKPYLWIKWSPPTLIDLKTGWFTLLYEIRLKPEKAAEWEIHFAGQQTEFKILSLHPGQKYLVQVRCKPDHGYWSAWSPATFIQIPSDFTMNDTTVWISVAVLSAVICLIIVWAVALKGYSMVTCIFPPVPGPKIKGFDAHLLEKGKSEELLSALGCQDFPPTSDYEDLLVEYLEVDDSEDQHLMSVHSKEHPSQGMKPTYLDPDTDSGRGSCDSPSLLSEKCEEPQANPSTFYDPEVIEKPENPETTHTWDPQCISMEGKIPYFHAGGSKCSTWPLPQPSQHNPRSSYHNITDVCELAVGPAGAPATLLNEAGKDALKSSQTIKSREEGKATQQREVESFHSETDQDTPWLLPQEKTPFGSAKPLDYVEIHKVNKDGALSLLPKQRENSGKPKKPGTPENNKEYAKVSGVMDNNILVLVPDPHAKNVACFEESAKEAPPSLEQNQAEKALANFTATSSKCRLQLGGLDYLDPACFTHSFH
Protocol: as §3, §4

[6] = target: T4, mouse PRLR on HEK293/mPRLR cells (Mus musculus, UniProt Q08501); assay: FACS cell surface binding
T4 construct: HA; expressed in transfected cells; host or cells: HEK293
T4 sequence (Q08501 20-608): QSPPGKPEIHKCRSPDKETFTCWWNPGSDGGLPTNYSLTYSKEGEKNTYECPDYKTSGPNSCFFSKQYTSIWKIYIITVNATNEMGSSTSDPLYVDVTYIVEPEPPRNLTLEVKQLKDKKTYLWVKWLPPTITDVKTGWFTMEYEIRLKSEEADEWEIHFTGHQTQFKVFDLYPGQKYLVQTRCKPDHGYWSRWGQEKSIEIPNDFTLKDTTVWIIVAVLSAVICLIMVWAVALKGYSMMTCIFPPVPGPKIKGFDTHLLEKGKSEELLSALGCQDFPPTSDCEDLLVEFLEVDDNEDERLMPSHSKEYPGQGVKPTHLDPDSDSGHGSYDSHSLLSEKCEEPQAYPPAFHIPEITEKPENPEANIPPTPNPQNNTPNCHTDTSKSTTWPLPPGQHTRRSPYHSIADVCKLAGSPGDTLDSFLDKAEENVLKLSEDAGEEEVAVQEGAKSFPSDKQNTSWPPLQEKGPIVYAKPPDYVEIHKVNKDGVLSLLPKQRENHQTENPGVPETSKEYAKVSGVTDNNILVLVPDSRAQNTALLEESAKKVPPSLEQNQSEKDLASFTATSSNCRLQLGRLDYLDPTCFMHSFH
Protocol: as §2, §3, §4

[7] = target: T5, monkey PRLR on HEK293/mfPRLR cells (Macaca fascicularis, UniProt A0A2K5WXK1); assay: FACS cell surface binding
T5 construct: HA; expressed in transfected cells; host or cells: HEK293
T5 sequence (A0A2K5WXK1 25-619): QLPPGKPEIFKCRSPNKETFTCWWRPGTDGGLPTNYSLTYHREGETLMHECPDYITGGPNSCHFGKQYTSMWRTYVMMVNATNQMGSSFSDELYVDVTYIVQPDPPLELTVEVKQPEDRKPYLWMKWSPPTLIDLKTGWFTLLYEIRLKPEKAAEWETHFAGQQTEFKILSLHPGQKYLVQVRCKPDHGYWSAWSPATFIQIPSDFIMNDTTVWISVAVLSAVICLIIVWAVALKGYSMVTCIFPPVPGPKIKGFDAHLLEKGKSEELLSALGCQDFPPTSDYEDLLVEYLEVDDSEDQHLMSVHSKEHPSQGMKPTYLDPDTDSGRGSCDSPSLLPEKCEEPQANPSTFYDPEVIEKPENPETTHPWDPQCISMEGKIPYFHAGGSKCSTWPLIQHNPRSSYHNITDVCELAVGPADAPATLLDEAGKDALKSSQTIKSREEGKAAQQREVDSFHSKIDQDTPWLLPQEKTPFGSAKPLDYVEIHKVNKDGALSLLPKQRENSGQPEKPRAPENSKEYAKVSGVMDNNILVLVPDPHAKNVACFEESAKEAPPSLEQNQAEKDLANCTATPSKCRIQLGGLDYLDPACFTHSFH
Protocol: as §2, §3, §4

[8] = target: T6, human PRLR on HEK293/hPRLR cells (Homo sapiens, UniProt P16471); assay: FACS cell surface binding
T6 construct: HA; expressed in transfected cells; host or cells: HEK293
T6 sequence (P16471 25-622): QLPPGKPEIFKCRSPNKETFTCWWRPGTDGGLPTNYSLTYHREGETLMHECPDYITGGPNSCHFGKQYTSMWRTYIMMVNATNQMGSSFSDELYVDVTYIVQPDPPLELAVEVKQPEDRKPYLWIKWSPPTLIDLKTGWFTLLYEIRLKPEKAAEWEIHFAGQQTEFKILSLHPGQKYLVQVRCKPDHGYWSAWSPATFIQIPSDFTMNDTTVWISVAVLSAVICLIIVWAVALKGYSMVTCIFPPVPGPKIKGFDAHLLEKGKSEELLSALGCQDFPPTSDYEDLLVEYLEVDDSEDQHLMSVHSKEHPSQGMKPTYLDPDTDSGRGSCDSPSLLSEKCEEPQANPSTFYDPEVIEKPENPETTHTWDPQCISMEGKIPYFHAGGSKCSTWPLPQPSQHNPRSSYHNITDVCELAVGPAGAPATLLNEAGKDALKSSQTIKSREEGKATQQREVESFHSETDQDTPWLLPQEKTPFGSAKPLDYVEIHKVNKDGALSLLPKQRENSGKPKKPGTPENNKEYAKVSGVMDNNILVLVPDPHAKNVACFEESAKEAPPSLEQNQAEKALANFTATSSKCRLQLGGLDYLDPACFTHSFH
Protocol: as §2, §3, §4

[9] = tested on: HEK293 (293) cells; assay: In vitro cell viability (cell kill) assay, CCK8; format: cell-based, human; details: 293; Table 11; 3 days
From the text: (§5) PRLR-overexpressing cells, including HEK293, PC3, MCF7 and NCI-N87, were generated to assess the ability of anti-PRLR conjugated antibodies to reduce cell viability. For comparative purposes, PC3 and T47D cells with overexpressed ErbB2 were also generated, as well as an MCF7 cell line over-expressing both hPRLR and hErbB2. Briefly, Lipofectamine® 2000-mediated transfection methodology was utilized to generate HEK293 cells expressing human PRLR (HEK293/hPRLR) or human ErbB2 (HEK293/hErbB2). Lipofectamine LTX with Plus Reagent was used to generate PC3 cells expressing human PRLR (PC3/hPRLR) or human ErbB2 (PC3/hErbB2). Lentiviral-mediated transduction was utilized to generate MCF7 cells expressing human PRLR (MCF7/hPRLR), NCI-N87 cells expressing human PRLR (NCI-N87/hPRLR), T47D cells over-expressing human ErbB2 (T47D/hErbB2), and MCF7 cells expressing both human PRLR and human ErbB2 (MCF7/hPRLR/hErbB2). All lines were selected for at least two weeks in complete growth media plus appropriate selection reagents. Stably expressing populations were enriched for PRLR expression via FACS using the anti PRLR antibody Control I.
(§6) Next, the ability of anti-PRLR-DM1 antibody-drug conjugates (i.e., anti-PRLR antibodies conjugated to DM1 via a non-cleavable linker [SMCC]) to reduce cell viability was determined using in vitro cell based assays. Cells were seeded in PDL-coated 96 well plates at 1500 to 10000 cells per well in complete growth media and allowed to grow overnight. For cell viability curves, ADCs or free DM1 (as the methyl disulfide derivative DM1-SMe) were added to the cells at final concentrations ranging from 500 nM to 5 pM and incubated for 3 days. The 293, PC3 and T47D cells were incubated with CCK8 (Dojindo, Rockville, Md.) for the final 1-3 hours and the absorbance at 450 nm (OD450) was determined on a Flexstation3 (Molecular Devices, Sunnyvale, Calif.). MCF7 cells were treated with Hoechst 33342 nuclear stain while being fixed with 4% formaldehyde. Images were acquired on the ImageXpress micro XL (Molecular Devices, Sunnyvale, Calif.) and nuclear counts were determined via Columbus image analysis software (Perkin Elmer, Shelton, Conn.). Background OD450 values (PC3, 293, and T47D) or nuclear counts (MCF7) from digitonin (40 nM) treated cells was subtracted from all wells and viability was expressed as a percentage of the untreated controls. IC50 values were determined from a four-parameter logistic equation over a 10-point response curve (GraphPad Prism).

[10] = tested on: PC3 cells; assay: In vitro cell viability (cell kill) assay, CCK8; format: cell-based, human; details: Table 11, 3 days
From the text: as §5, §6

T2 sequence (P16471 with tags, fused parts or gaps): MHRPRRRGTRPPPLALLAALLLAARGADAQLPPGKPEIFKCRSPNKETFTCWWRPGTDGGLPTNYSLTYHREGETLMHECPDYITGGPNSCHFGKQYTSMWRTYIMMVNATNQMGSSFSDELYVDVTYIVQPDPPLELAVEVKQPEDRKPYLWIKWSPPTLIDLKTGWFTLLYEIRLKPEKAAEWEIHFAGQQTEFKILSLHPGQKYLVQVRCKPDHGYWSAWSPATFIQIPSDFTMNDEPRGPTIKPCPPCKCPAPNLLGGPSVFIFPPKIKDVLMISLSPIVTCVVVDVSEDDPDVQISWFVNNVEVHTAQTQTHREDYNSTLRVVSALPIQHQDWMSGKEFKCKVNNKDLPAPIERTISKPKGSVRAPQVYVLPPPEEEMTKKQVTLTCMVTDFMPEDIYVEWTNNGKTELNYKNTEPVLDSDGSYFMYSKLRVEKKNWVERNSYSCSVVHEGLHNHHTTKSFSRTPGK
T1 sequence (P16471 with tags, fused parts or gaps): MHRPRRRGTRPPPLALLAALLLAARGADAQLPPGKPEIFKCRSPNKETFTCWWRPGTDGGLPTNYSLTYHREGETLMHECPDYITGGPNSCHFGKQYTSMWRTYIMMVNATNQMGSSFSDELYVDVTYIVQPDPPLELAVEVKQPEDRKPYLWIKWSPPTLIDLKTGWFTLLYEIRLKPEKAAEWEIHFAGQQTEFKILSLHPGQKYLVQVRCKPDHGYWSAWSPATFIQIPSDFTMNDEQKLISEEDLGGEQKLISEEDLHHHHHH
Macaca fascicularis PRLR (mfPRLR.mmh; SEQ ID NO:403), sequence (as listed by the source): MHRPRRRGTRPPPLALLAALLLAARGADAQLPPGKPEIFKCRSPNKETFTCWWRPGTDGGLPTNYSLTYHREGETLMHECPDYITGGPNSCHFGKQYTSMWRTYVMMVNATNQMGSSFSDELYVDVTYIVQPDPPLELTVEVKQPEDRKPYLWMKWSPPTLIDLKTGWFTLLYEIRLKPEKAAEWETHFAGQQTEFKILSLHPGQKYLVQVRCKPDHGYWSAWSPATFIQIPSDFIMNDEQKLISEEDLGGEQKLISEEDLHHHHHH

B1: H1H6959N2: anti-PRLR antibody, human IgG1 Fc form of H2M6959N2 of Table 1; HCVR/LCVR SEQ ID NOs 306/314 (antibody, V domains shown)
VH: EVQLVESGGGLVQPGRSLRLSCAASGFTFDDYAMHWVRQAPGKGLEWVSGISWHSGIIGYADSVKGRFTISRDNAKNSLYLQMNSLRTEDAALYYCAKIGSYFYFDSWGQGTLVTVSS
VL: EIVLTQSPGTLSLSPGERATLSCRASQSVSSNYLAWYQQKPGQAPRLLIYGASSRATGIPDRFSGSGSGTDFTLTISRLEPEDFAVYYCQQFGSSGYTFGQGTNLEIK
Work on B1 yielded a ka ([1]; 25° C.) of 179000 M/s, a kd ([1]; 25° C.) of 0.036 s⁻¹ and a ka ([1]; 37° C.) of 40600 M/s. The kd ([1]; 37° C.) was 0.0277 s⁻¹, the ka ([2]; 25° C.) was 359000 M/s and the kd ([2]; 25° C.) was 0.000518 s⁻¹. The ka ([2]; 37° C.) was 509000 M/s, the kd ([2]; 37° C.) was 0.0023 s⁻¹ and the ka ([3]; 25° C.) was 129000 M/s. It also gave a kd ([3]; 25° C.) of 0.0167 s⁻¹, a ka ([3]; 37° C.) of 44600 M/s and a kd ([3]; 37° C.) of 0.0165 s⁻¹. For the same molecule, the “FACS Cell Binding” value [4] was 1 Fold Above Background, the “FACS Cell Binding” value [5] was 9 Fold Above Background and the “FACS Cell Binding” value [6] was 2 Fold Above Background. The “FACS Cell Binding” value [7] was 11 Fold Above Background and the “FACS Cell Binding” value [8] was 6 Fold Above Background.

B2: H1H6803P-DM1 (conjugate)
VH: EVQLVESGGGVVRPGGSLRLSCAASGFKFDDYGMTWVRHVPGKGLEWVSGINWNGGRTGYTDSVKGRFTISRDNAKNSLYLQMNSLRAEDTALYHCAGARRDAFDIWGQGTMVTVSS
VL: DIQMTQSPSSLSASIGDRVTITCRASQNIIKYLNWYQQNAGKAPKLLIYTASSLQSGVPSRFSGSGSGTDFTLTISSLQPEDFATYYCQQSSSSPYTFGQGTKLEIK
In the case of B2, the “% Kill” value [9] is reported as 7% and the “% Kill” value [10] is reported as 72%.

B3: H1H6959N2-DM1 (conjugate)
VH: EVQLVESGGGLVQPGRSLRLSCAASGFTFDDYAMHWVRQAPGKGLEWVSGISWHSGIIGYADSVKGRFTISRDNAKNSLYLQMNSLRTEDAALYYCAKIGSYFYFDSWGQGTLVTVSS
VL: EIVLTQSPGTLSLSPGERATLSCRASQSVSSNYLAWYQQKPGQAPRLLIYGASSRATGIPDRFSGSGSGTDFTLTISRLEPEDFAVYYCQQFGSSGYTFGQGTNLEIK
With B3 the IC50 [9] was 75 nM, the “% Kill” value [10] was 79% and the IC50 [10] was 150 nM.
